Experimental data: PMC6754456, “A processive endoglucanase with multi-substrate specificity is characterized from porcine gut microbiota” (Scientific Reports, 2019)

Tested on: O=[N+]([O-])c1ccc(O[C@@H]2O[C@H](CO)[C@@H](O[C@@H]3O[C@H](CO)[C@@H](O)[C@H](O)[C@H]3O)[C@H](O)[C@H]2O)cc1
Assay: purified protein
Details: 100 mM MES pH 6.0, 50 °C, 10 min

Question: Which Km does the source give for p4818Cel5_2A (uncultured bacterium) here?
Answer: Its Km is 1200 ± 100 µM.

Question: And the kcat?
Answer: The kcat was 1.63 ± 0.0583 s⁻¹.

Question: What about the kcat/Km of the same substance?
Answer: Its kcat/Km is 1350 M⁻¹ s⁻¹.
